Experimental data reported in the DeepSol protein solubility set.

Experiment: soluble on expression in E. coli; label from the status in PepcDB or PDB records

Sequence | soluble on expression in E. coli
MPLNKLIQDGDNQDLTDERFKATFDTDALAAVFHGGEDALKRIRELRDEVTKRWHLFDALPGAHRTRAERMEDVSRKLKNLMESVGEFADFTNNLDMLVIIRDVMGIEGFPLALHNLMFVPTIQNQADDEQTEWWLMDALQGKIIGTYAQTELGHGTNLGAIETTATYDKLTEEFIIHTPTTTATKWWPGGLGTSCTHVVLVANLIIDTKNYGLHPFFVPIRDRNSYSVMSGVRVGDIGTKMGVNCVDNGFLAFDNYRIPRRNMLMKHSKVSKEGLYTAPSHPKVGYTTMLYMRSEMIYHQAYYLAMAMAISIRYSAVRRQGEIKPGTQEVQILDYQTQQYRIFPGLARCFAFNTAAATVRQMTENCIKQLSHGNSDVLADLHALSCGLKAVVTHQASQSIDQARQACGGHGYSDASYLPTLYTCSVGACTYEGENMVMLLQLSKYLMKAAAKAEKGEEMAPLVAYLVKPDITETNDKFAKMLSHFEHIARHRVMHAYRQMIEEEKQGIERDYAFANHSVDWTKAARAHTKLFIARGFVKSVQEVSDEAVHDVLTTLAELYLSYELIEMSADLTANGYLSESDVQQIRHQIYDSMRKTRRNAVSIVDSFDICDRELRSVLGRRDGHVYENLYKWAQMSPLNERNLPHVEKYLKPMTSKL | not soluble
MPLRPQRPCRAQGCRSLHRNANGYCDGHADLAAEQAKAWATRKGSGRGGRPWRRKRERILKRDQYLCRCDDCAQLGRIREAHEVDHIVALAHGGTDDDDNLRAINRDCHKAKTQRESKTIKKLEHHHHHH | not soluble
MPLSKRRAAGRINGLKGPPAKKRKEIERHEALLMHPLAYTAEQYEQVAEESKFYKNCFETTAAENVELLKSNDQLKKELELLKNQQGNQLKVDMKFKSQIESTRQSNMTLLREREIWQNRYYDVLAEKLALSARVKSMMGDIVESVEVPNDSNGNTWELREDLEIDRSARRKTEEEPKAQKMNSTRGSLPRNQCSTRSNNQTPNEMLLKMAIGLDTTSVN | not soluble
MPLSPYLSFAGNCSDAIAYYQRTLGAELLYKISFGEMPKSAQDSAENCPSGMQFPDTAIAHANVRIAGSDIMMSDAIPSGKASYSGFTLVLDSQQVEEGKRWFDNLAANGKIEMAWQETFWAHGFGKVTDKFGVPWMINVVKQQPTQ | not soluble
MPLTDPAKLQIVQQRVFLKKVCRKCGALNPIRATKCRRCHSTNLRLKKKELPTKKG | soluble
MPLVQMKDILMKANQENYGVGAFSVTNMEMVMGAIKAAEELSSPLILQIAEVRLNHSPIHMIGPLMVAAAKQATVPVAVHFDHGMTFEKIQETLEIGFSSVMFDGSHYPLEENIQKTKEIVELAKQYGATVEAEIGRVGGSEDGSEDIEMLLTSTTEAKRFAEETDVDALAVAIGNAHGMYNGDPNLRLDRLQEINDVVHIPLVLHGGSGISPEDFKQCIQHGVRKINVATATFQNVITAVNNTVLNTPYSDYFTYHQDVIKAAYENVKSHMQIFGSENRA | not soluble
MPMAKPLKYPVSALVVLYSGDGGILLIERTHPEGFWQSVTGSLEPGETVAQTARREVWEETGILLADGQLQDWHDSTVYEIYHHWRHRYPKGVFENREHLFSAEIPRDTPIALQPEEHVSYGWFDMEEAAEKVFSPSNRRAILELGRFLGKR | not soluble
MPMIIKQEQFIPKDTVETTIDLLIRNLTTIKDNTGEFLLDFDGLKVDDKSWTIWNWPQGVGLYGIYKNYRNTKSEKALQVVNDWFEGRMQEGAPPKNVNTMAPLLTMAYLYEDTKDSKYIPYLEQWAEWVMEEMPRTNEGGLQHATYGPENKNQLWDDTLMMTVLPLAKIGKLLNRLDYLEEAKHQFLIHIKYLQDKKSGLWYHGWTFEGNHNYAEALWARGNCWITIAIPEIIEILELPKGDSLREFLLSTLNAQVAALAKYQDESGLWHTLINDSNSYLESSATAGFAYGILKAVHKKYISSEYEEVANKAIAGLLNEIDETGEVQHVSVGTGMGDNLDFYRTIGMTAMPYGQSLTILCLTELLVSYC | not soluble
MPMVRVATNLPDKDVPANFEERLTDLLAESMNKPRNRIAIEVLAGQRITHGASRNPVAVIKVESIGALSADDNIRHTQKITQFCQDTLKLPKDKVIITYFDLQPIHVGFNGTTVAAATM | soluble
MPMVVAKRNARERTRVHTVNQAFLVLKQHLPSLRQFTKRVSKLRILNAAITYIDTLLKLIQSSEAVPQSVISATLGPIVPTPVRAVHKISKPDTVISQPIRPLAPVLPRHETYLPAPIAATCAPDHSLVDYRSTFASSLAPPVPMQMPSVFSPQPTFPYMKSLLDYPTYFYQPSTAPPPPPAPTAPQSHLIVNNQLVPMPSYQCF | not soluble
MPNELSRSLSPYLLMHANDPVEWRMWSKETLRIATEENRLIFLSIGYSSCHWCHVMHEESFVDPDVAEILNNNYIPVKVDREERPDLDSYFMKVSQVINGNGGWPLNIILLPDARPVFAMTYVPKEDRNGMTGLKTILIQLSQMYLKDPDQFKDQAKAVSDAMEERESV | soluble
MPNKRNVELLATLKENLERAQGSFFLVNYQGLPAKETHALRQALKQNGARLFVAKNTLIRLALKELGLPELDGLQGPSAVVFYEDPVAAAKTLVQFAKSNPKGIPQVKSGLLQGQILTAKDVEALAELPTMDELRAELVGVLQAPMAELVGVLGGVARELVGILEAYAEKKAA | soluble
MPNSKKSKKGGDQQHVTIVPVEPVKGENVDTVAYSSRSRISGESGHLIADVQSPHAKKHRIIFDRDHNVFEFRLLDGSAKHIIVYRLDELLSTTCYPFKIKNGVPIIPTKPTTSDKTLYFNFVYKKDKQKWRLKQIPVIFYTTSERDYWHSLIDTTLRRVKNRPKNIIIFINPFGGNGKAQKIFKDNVDAFFWLTPGLRYKVVLTERANHARDYIVEMPPEQWSAIDGLVSVGGDGLFNELLSGALLRTQTDAGRNIDNPSSHLVTPHIRFGIIGAGSANSIVSTVHETNDHATSAVHIAIGSECNVDVCTVHQHQKLIRISANAISYGWLGDVLRDSEEYRCLGPIRYQWSALRTTIRHPIYRGMVQFSLSHKENVNPKDQLPPCLEPCPVCMKPQGNDKYDYHWHAEFTHVICCVIPTVTPFTPYGLAPFTGIGDGTLDLALVPRISRFHNMQFMRKVAMYGGKQLYELDPSLNCYRVTKWSYQPDADQEDPGVWNLDGEILEQPKDEPLHFKLHPQLISFFGRDAAMVKPTKRSFIKKRKSSIVYQ | not soluble
MPPKKTQKSGLLQFFAKQQQEKYQNSSKNEETTEHDDSCQILFEKQVAGPSKVSKPIGFPTTPKNTTKWAETLQKSSEKAGRDWLNPFPIRVSSAKKEIEKNSKTELLAKGFDDIHGNGIFYPINEPIRNFELNLLKCLSSSNCCVALPSSSPSTPGRICAMTVFNFLKWFPRCRVLLVSSSDSWISSLRQLGLESQTTKLTTVTQFKNLKTEAGKILVCTTPQCALKVVESTGGREFLEEIRLVLMELKPNECCSKYKPILNALTVKETFFRCSVLTTSTSNASRRTASITKRQQMITNLQLSDWIEQTEADFAFRSANIPAGVEVKTWKSEDNSAKHAEITGKFEKYCEKTIDDLARQCIVSSKSVKKLIWTCWKTLKQQSKLPEIEKKKLEISEFLTCTYKLLIIDGVVAARNFVKKHSEIPHIKEHAEKILEPTIFGGFSEFPAKFQQLSDSIEAFLKMDNHVLGVILCRDSDQAIEIQNYLELQLTTRCTCVRIIEEGTHPGRNLWNIQRISTVFIDRKSPKIVILPVKIRDFIGFSDGLPLSELTFIASISRDSLFNFRRFGGAHLLIINDPLEKLRNEDGRLLVDDGKFVQNNSKNAPKMGAVERYDFKFEPSRLRIDATHLPIQFFYPRDVGVTFDETAGISQLGKTHIEMTSKEHTELFKRLQNPDFSRFQRRKRVFWVLEDLEHPNENKSIPIEEMDETQLCWNQDIQYLGEIKSSKLSERLTRYMKDEPVEWIINEKRRFEYINEITSTDRLVHLDRLLRNLDAHFQVLSSC | not soluble
MPPKTSEVARKLERLGFKPLPRRGKGGHRVYVHPDGRKVVLPLHSGEIPWGLFKTVLKQAGITEEEFRRA | soluble
